Data from IntAct's records for PubMed 22778397.

B1: RNA-binding protein FUS (Homo sapiens), P35637 (parent)
chain: MASNDYTQQATQSYGAYPTQPGQGYSQQSSQPYGQQSYSGYSQSTDTSGYGQSSYSSYGQSQNTGYGTQSTPQGYGSTGGYGSSQSSQSSYGQQSSYPGYGQQPAPSSTSGSYGSSSQSSSYGQPQSGSYSQQPSYGGQQQSYGQQQSYNPPQGYGQQNQYNSSSGGGGGGGGGGNYGQDQSSMSSGGGSGGGYGNQDQSGGGGSGGYGQQDRGGRGRGGSGGGGGGGGGGYNRSSGGYEPRGRGGGRGGRGGMGGSDRGGFNKFGGPRDQGSRHDSEQDNSDNNTIFVQGLGENVTIESVADYFKQIGIIKTNKKTGQPMINLYTDRETGKLKGEATVSFDDPPSAKAAIDWFDGKEFSGNPIKVSFATRRADFNRGGGNGRGGRGRGGPMGRGGYGGGGSGGGGRGGFPSGGGGGGGQQRAGDWKCPNPTCENMNFSWRNECNQCKAPKPDGPGGGPGGSHMGGNYGDDRRGGRGGYDRGGYRGRGGDRGGFRGGRGGGDRGGFGPGKMDSRGEHRQDRRERPY

Variants of: B1
Settings: with TNPO1, Q92973-2
Chain of TNPO1, Q92973-2 (Q92973 9-898): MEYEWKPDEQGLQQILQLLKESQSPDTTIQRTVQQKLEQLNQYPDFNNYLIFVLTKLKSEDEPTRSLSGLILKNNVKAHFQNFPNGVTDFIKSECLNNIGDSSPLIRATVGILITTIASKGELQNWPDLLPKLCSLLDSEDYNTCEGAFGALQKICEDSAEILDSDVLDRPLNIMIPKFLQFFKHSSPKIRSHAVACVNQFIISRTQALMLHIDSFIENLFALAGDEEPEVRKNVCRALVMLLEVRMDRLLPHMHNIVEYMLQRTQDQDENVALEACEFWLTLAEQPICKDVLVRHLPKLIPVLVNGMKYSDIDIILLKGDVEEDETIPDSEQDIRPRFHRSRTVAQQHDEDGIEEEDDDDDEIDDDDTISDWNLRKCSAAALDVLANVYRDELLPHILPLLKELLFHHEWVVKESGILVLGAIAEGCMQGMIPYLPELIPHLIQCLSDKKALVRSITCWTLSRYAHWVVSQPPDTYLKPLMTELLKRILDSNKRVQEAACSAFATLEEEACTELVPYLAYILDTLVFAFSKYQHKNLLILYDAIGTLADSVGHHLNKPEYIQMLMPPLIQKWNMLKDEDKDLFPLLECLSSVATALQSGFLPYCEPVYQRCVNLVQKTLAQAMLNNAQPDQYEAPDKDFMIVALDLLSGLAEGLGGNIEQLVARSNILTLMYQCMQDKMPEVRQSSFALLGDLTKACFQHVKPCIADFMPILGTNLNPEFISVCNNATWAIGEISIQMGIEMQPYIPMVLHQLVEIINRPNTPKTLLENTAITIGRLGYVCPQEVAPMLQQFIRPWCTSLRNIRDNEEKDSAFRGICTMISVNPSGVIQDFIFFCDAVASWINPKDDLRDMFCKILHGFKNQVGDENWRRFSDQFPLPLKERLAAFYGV

Variant	effect of a mutation on the interaction
H517Q	decreasing interaction strength
R522A	decreasing interaction strength
P525L	decreasing interaction strength
R524S	decreasing interaction strength
R518A	decreasing interaction strength

More lines, now with the values ahead:

effect of a mutation on the interaction	Variant
decreasing interaction strength	R514A;R518A
decreasing interaction strength	Y526A
disrupting interaction strength	R514A;R518A;R521A;R522A
decreasing interaction strength	R521C
decreasing interaction strength	P525A
decreasing interaction strength	P525A;Y526A
decreasing interaction strength	R521A;R522A
decreasing interaction strength	P508A;G509A;K510A;M511A
